B1: Azoarcus group I ribozyme (parent)
chain: GUGCCUUGCGCCGGGAAACCACGCAAGGGAUGGUGUCAAAUUCGGCGAAACCUAAGCGCCCGCCCGGGCGUAUGGCAACGCCGAGCCAAGCUUCGGCGCCUGCGCCGAUGAAGGUGUAGAGACUAGACGGCACCCACCUAAGGCAAACGCUAUGGUGAAGGCAUAGUCCAGGGAGUGGCGAAAGUCACACAAACCGG

Variants of: B1
Assay: reverse-splicing fitness (ratio to wild type); higher = more active; in vitro selection; Mg2+ level not given
How it was run: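 An in vitro group I ribozyme library with randomized positions was T7-transcribed and gel-purified. In triplicate, 10 pmol RNA in EPPS pH 7.5 was reacted with 50 pmoles of a 30-nt RNA substrate for 1 h at 37 °C across several added MgCl2 levels (1–48 mM), then stopped with EDTA. Products were reverse transcribed from a substrate-complementary primer, PCR-amplified and sequenced (HiSeq 4000). Fitness is a variant's read proportion after selection over that before, normalised to wild type.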

Question: Which reverse-splicing fitness does the source give for GUGCCUUGCGCCGGGAAACCACGCAAGGGAUGGUGUCAAAUUCGGCGAAACCUAAGCGCCCGCCCGGGCGUAUGGCAACGCGGAGCCAAGCUUCGGCGCCUGCGCCGAUGGAGGUGUAGGGACUAGACGGCACCCACCUAAGGCGAACGAUAUGGUGAAGGCAUAGUCAAGGGAGUGGCGAAAGUCACACAAACCGG here?
Answer: 0.0113

Question: For GUGCCUUGCGCCGGGAAACCACGCAAGGGAUGGUGUCAAAUUCGGCGAAACCUAAGCGCCCGCCCGGGCGUAUGGCAACGCGGAGCCAAGCUUCGGCGCCUGCGCCGAUGGAGGUGUAGGGACUAGACGGCACCCACCUAAGGCGAACGAUAUGGUGAAGGCAUAGUCUAGGGAGUGGCGAAAGUCACACAAACCGG, which reverse-splicing fitness is on record?
Answer: 0.0102

Question: With GUGCCUUGCGCCGGGAAACCACGCAAGGGAUGGUGUCAAAUUCGGCGAAACCUAAGCGCCCGCCCGGGCGUAUGGCAACGCGGAGCCAAGCUUCGGCGCCUGCGCCGAUGGAGGUGUAGGGACUAGACGGCACCCACCUAAGGCGAACGAUAUGGUGAAGGCAUAGUCGAGGGAGUGGCGAAAGUCACACAAACCGG as the variant, how does the reverse-splicing fitness read?
Answer: 0.0102

Question: For GUGCCUUGCGCCGGGAAACCACGCAAGGGAUGGUGUCAAAUUCGGCGAAACCUAAGCGCCCGCCCGGGCGUAUGGCAACGCGGAGCCAAGCUUCGGCGCCUGCGCCGAUGGAGGUGUAGGGACUAGACGGCACCCACCUAAGGCGAACGAUAUGGUGAAGGCAUAGUCCAGGGAGAGGCGAAAGUCACACAAACCGG, which reverse-splicing fitness is on record?
Answer: 0.0107

Question: For GUGCCUUGCGCCGGGAAACCACGCAAGGGAUGGUGUCAAAUUCGGCGAAACCUAAGCGCCCGCCCGGGCGUAUGGCAACGCGGAGCCAAGCUUCGGCGCCUGCGCCGAUGGAGGUGUAGGGACUAGACGGCACCCACCUAAGGCGAACGAUAUGGUGAAGGCAUAGUCCAGGGAGUGGCGAAAGUCACACAAACCGG, which reverse-splicing fitness is on record?
Answer: 0.0101

Question: For GUGCCUUGCGCCGGGAAACCACGCAAGGGAUGGUGUCAAAUUCGGCGAAACCUAAGCGCCCGCCCGGGCGUAUGGCAACGCGGAGCCAAGCUUCGGCGCCUGCGCCGAUGGAGGUGUAGGGACUAGACGGCACCCACCUAAGGCGAACGAUAUGGUGAAGGCAUAGUCGAGGGAGCGGCGAAAGUCACACAAACCGG, which reverse-splicing fitness is on record?
Answer: 0.0272

Question: For GUGCCUUGCGCCGGGAAACCACGCAAGGGAUGGUGUCAAAUUCGGCGAAACCUAAGCGCCCGCCCGGGCGUAUGGCAACGCGGAGCCAAGCUUCGGCGCCUGCGCCGAUGGAGGUGUAGGGACUAGACGGCACCCACCUAAGGCGAACGAUAUGGUGAAGGCAUAGUCGAGGGAGGGGCGAAAGUCACACAAACCGG, which reverse-splicing fitness is on record?
Answer: 0.00618

Question: For GUGCCUUGCGCCGGGAAACCACGCAAGGGAUGGUGUCAAAUUCGGCGAAACCUAAGCGCCCGCCCGGGCGUAUGGCAACGCGGAGCCAAGCUUCGGCGCCUGCGCCGAUGGAGGUGUAGGGACUAGACGGCACCCACCUAAGGCGAACGAUAUGGUGAAGGCAUAGUCGAGGGAGAGGCGAAAGUCACACAAACCGG, which reverse-splicing fitness is on record?
Answer: 0.0177

Question: For GUGCCUUGCGCCGGGAAACCACGCAAGGGAUGGUGUCAAAUUCGGCGAAACCUAAGCGCCCGCCCGGGCGUAUGGCAACGCGGAGCCAAGCUUCGGCGCCUGCGCCGAUGGAGGUGUAGGGACUAGACGGCACCCACCUAAGGCGAACGAUAUGGUGAAGGCAUAGUCAAGGGAGAGGCGAAAGUCACACAAACCGG, which reverse-splicing fitness is on record?
Answer: 0.0204

Question: Which reverse-splicing fitness does the source give for GUGCCUUGCGCCGGGAAACCACGCAAGGGAUGGUGUCAAAUUCGGCGAAACCUAAGCGCCCGCCCGGGCGUAUGGCAACGCGGAGCCAAGCUUCGGCGCCUGCGCCGAUGGAGGUGUAGGGACUAGACGGCACCCACCUAAGGCGAACGAUAUGGUGAAGGCAUAGUCAAGGGAGCGGCGAAAGUCACACAAACCGG here?
Answer: 0.0231

Question: With GUGCCUUGCGCCGGGAAACCACGCAAGGGAUGGUGUCAAAUUCGGCGAAACCUAAGCGCCCGCCCGGGCGUAUGGCAACGCGGAGCCAAGCUUCGGCGCCUGCGCCGAUGGAGGUGUAGGGACUAGACGGCACCCACCUAAGGCGAACGAUAUGGUGAAGGCAUAGUCAAGGGAGGGGCGAAAGUCACACAAACCGG as the variant, how does the reverse-splicing fitness read?
Answer: 0.00774

Question: Which reverse-splicing fitness does the source give for GUGCCUUGCGCCGGGAAACCACGCAAGGGAUGGUGUCAAAUUCGGCGAAACCUAAGCGCCCGCCCGGGCGUAUGGCAACGCGGAGCCAAGCUUCGGCGCCUGCGCCGAUGGAGGUGUAGGGACUAGACGGCACCCACCUAAGGCGAACGCUAUGGUGAAGGCAUAGUCCAGGGAGUGGCGAAAGUCACACAAACCGG here?
Answer: 0.0179

Question: For GUGCCUUGCGCCGGGAAACCACGCAAGGGAUGGUGUCAAAUUCGGCGAAACCUAAGCGCCCGCCCGGGCGUAUGGCAACGCGGAGCCAAGCUUCGGCGCCUGCGCCGAUGGAGGUGUAGGGACUAGACGGCACCCACCUAAGGCGAACGAUAUGGUGAAGGCAUAGUCUAGGGAGCGGCGAAAGUCACACAAACCGG, which reverse-splicing fitness is on record?
Answer: 0.0177

Question: With GUGCCUUGCGCCGGGAAACCACGCAAGGGAUGGUGUCAAAUUCGGCGAAACCUAAGCGCCCGCCCGGGCGUAUGGCAACGCGGAGCCAAGCUUCGGCGCCUGCGCCGAUGGAGGUGUAGGGACUAGACGGCACCCACCUAAGGCGAACGAUAUGGUGAAGGCAUAGUCUAGGGAGGGGCGAAAGUCACACAAACCGG as the variant, how does the reverse-splicing fitness read?
Answer: 0.00809

Question: With GUGCCUUGCGCCGGGAAACCACGCAAGGGAUGGUGUCAAAUUCGGCGAAACCUAAGCGCCCGCCCGGGCGUAUGGCAACGCGGAGCCAAGCUUCGGCGCCUGCGCCGAUGGAGGUGUAGGGACUAGACGGCACCCACCUAAGGCGAACGAUAUGGUGAAGGCAUAGUCUAGGGAGAGGCGAAAGUCACACAAACCGG as the variant, how does the reverse-splicing fitness read?
Answer: 0.0177
